Reference: patent US11618906B2, “Hydroxylation techniques” (HYPHA DISCOVERY LTD., priority 2018, dated 2023)

B1: aluC09M39: cytochrome P450 aluC09 mutant T291K; amino acid sequence SEQ ID NO: 68 (protein, listed as Amycolatopsis lurida)
chain: MTDVEETTATLPLARKCPFSPPPEYERLRRESPVSRVGLPSGQTAWALTRLEDIREMLSSPHFSSDRQSPSFPLMVARQIRREDKPFRPSLIAMDPPEHSRARRDVVGEFTVKRMKALQPRIQQIVDEHLDALLAGPKPADLVQALSLPVPSLVICELLGVPYSDHEFFQSCSSRMLSREVTAEERMTAFEQLENYLDELVTKKEANATEDDLLGRQILKQRETGEADHGELVGLAFLLLIAGHETTANMISLGTVTLLENPDQLAKIKADPGKTLAAIEELLRVFTIAEKATSRFATADVEIGGTLIRAGEGVVGLSNAGNHDPDGFENPDTFDIERGARHHVAFGFGVHQCLGQNLARLELQIVFDTLFRRVPGLRIAVPVDELPFKHDSTIYGLHALPVTW
B2: aluC09M35: cytochrome P450 aluC09 mutant T291P; amino acid sequence SEQ ID NO: 52 (protein, listed as Amycolatopsis lurida)
chain: MTDVEETTATLPLARKCPFSPPPEYERLRRESPVSRVGLPSGQTAWALTRLEDIREMLSSPHFSSDRQSPSFPLMVARQIRREDKPFRPSLIAMDPPEHSRARRDVVGEFTVKRMKALQPRIQQIVDEHLDALLAGPKPADLVQALSLPVPSLVICELLGVPYSDHEFFQSCSSRMLSREVTAEERMTAFEQLENYLDELVTKKEANATEDDLLGRQILKQRETGEADHGELVGLAFLLLIAGHETTANMISLGTVTLLENPDQLAKIKADPGKTLAAIEELLRVFTIAEPATSRFATADVEIGGTLIRAGEGVVGLSNAGNHDPDGFENPDTFDIERGARHHVAFGFGVHQCLGQNLARLELQIVFDTLFRRVPGLRIAVPVDELPFKHDSTIYGLHALPVTW

Columns and labels:
Type in all cases: biochemical
[1] = Metabolism of tivantinib by P450 aluC09 and mutants; details: percent of substrate being converted; 0.125 mg/ml, 27° C., 16-20 hours; [CYP] per enzyme as in Table 8
Description: (§1) Lyophilised material of mutants of CYP450aluC09, ferredoxinaluF03 and ferredoxin reductaseSCF15A was made as described in examples 3 and 4 and suspended in water (0.5 mL per vial) and biocatalysis was performed at 27° C. in the following conditions: 50 mM potassium phosphate pH 7.4, 5 mM MgCl2, 0.125 mg/ml substrate compound such as diclofenac (Sigma-Aldrich, UK), Aceclofenac (Tokyo Chemical Industry UK Ltd, UK), Indomethacin (Sigma-Aldrich, UK), Flufenamic acid (Sigma-Aldrich, UK), Napropamide (Sigma-Aldrich, UK), celecoxib (LC Laboratories, USA), valsartan (Tokyo Chemical Industry UK Ltd, UK), ruxolitinib (LC Laboratories, USA), 4-pyrrolidylacetophenone (Sigma-Aldrich, UK), tofacitinib (LC Laboratories, USA), bosentan (CarboSynth Ltd, UK), buparvaquone (MedChemtronica, Sweden), BIRB796 (Stratech Scientific Limited, UK), epothilone B (LC Laboratories, USA), ritonavir (Tokyo Chemical Industry UK Ltd, UK) or tivantinib (MedChemtronica, Sweden), P450AluC09 (concentration as in Table 8), 5 mM G6P, 1 mM NADP, 2 UN/ml G6PDH in a final volume of 100 μL. After 16-20 hours at 200 rpm (5 cm orbital shaker, Kuhner AG, Switzerland), reactions were extracted with an equal volume of acetonitrile, centrifuged to remove precipitated proteins and conversion assessed by UPLC-MS analysis.
(§2) However, of particular note when considering P450 concentration are the results for mutants M12, M20 and M34, as well as the deleterious impact on the range of substrate utility in mutants M39 and M40.

[2] = Metabolism of epothilone B by P450 aluC09 and mutants; details: percent of substrate being converted; 0.125 mg/ml, 27° C., 16-20 hours; [CYP] per enzyme as in Table 8
Description: as §1, §2

[3] = O-demethylation of indomethacin catalysed by cytochrome P450 aluC09 and mutants; details: % by UV peak area at 275 nm; 0.125 mg/ml substrate, 27° C., 16-20 hours
Description: as §1
(§3) UPLC data was obtained as follows:
(§4) Column: Acquity UPLC BEH Shield RP18 1.7 μm 2.1 mm i.d. 50 mm length
(§5) Solvents: H2O, B: Acetonitrile, both with 0.1% Formic acid
(§6) Detector: Waters Acquity UPLC PDA (UV-Vis detection) and Waters Acquity UPLC QDA (MS)

[4] = Metabolism of bosentan by P450 aluC09 and mutants; details: percent of substrate being converted; 0.125 mg/ml, 27° C., 16-20 hours; [CYP] per enzyme as in Table 8
Description: as §1, §2

[5] = Metabolism of 4-pyrrolidylacetophenone by P450 aluC09 and mutants; details: percent of substrate being converted; 0.125 mg/ml, 27° C., 16-20 hours; [CYP] per enzyme as in Table 8
Description: as §1, §2

[6] = Metabolism of celecoxib by P450 aluC09 and mutants; details: percent of substrate being converted; 0.125 mg/ml, 27° C., 16-20 hours; [CYP] per enzyme as in Table 8
Description: as §1, §2

[7] = Metabolism of tofacitinib by P450 aluC09 and mutants; details: percent of substrate being converted; 0.125 mg/ml, 27° C., 16-20 hours; [CYP] per enzyme as in Table 8
Description: as §1, §2

[8] = Hydroxylation of flufenamic acid catalysed by cytochrome P450 aluC09 and mutants; details: for Flufenamic Acid (Substrate) 1.93 mins / Hydroxy-Flufenamic Acid (1) 1.69 mins / Hydroxy-Flufenamic Acid (2) 1.65 mins: % by UV peak area at 275 nm, 0.125 mg/ml substrate, 27° C., 16-20 hours; for Hydroxylated Ratio 1:2: flufenamic acid, ratio of UV peak areas at 275 nm
Description: as §1, §3, §4, §5, §6
Flufenamic acid elutes at 1.93 minutes, hydroxy-flufenamic acid 1 elutes at 1.68 minutes and hydroxy-flufenamic acid 2 elutes at 1.65 minutes.

[9] = Metabolism of buparvaquone by P450 aluC09 and mutants; details: percent of substrate being converted; 0.125 mg/ml, 27° C., 16-20 hours; [CYP] per enzyme as in Table 8
Description: as §1, §2

[10] = Metabolism of ruxolitinib by P450 aluC09 and mutants; details: percent of substrate being converted; 0.125 mg/ml, 27° C., 16-20 hours; [CYP] per enzyme as in Table 8
Description: as §1, §2

[11] = Metabolism of BIRB796 by P450 aluC09 and mutants; details: percent of substrate being converted; 0.125 mg/ml, 27° C., 16-20 hours; [CYP] per enzyme as in Table 8
Description: as §1, §2

[12] = Hydroxylation of aceclofenac catalysed by cytochrome P450 aluC09 and mutants; details: for Aceclofenac (Substrate) (1.80 mins) / Dihydroxy-Aceclofenac (1.42 mins) / Hydroxy-Aceclofenac (1) (1.64 min) / Hydroxy-Aceclofenac (2) (1.60 min): % by UV peak area at 275 nm, 0.125 mg/ml substrate, 27° C., 16-20 hours; for Hydroxylated Ratio 2:1: aceclofenac, ratio of UV peak areas at 275 nm
Description: as §1, §3, §4, §5, §6
Chromatograms are provided in FIGS. 5a-c; aceclofenac elutes at 1.80 minutes, hydroxy-aceclofenac acid 1 elutes at 1.64 minutes, hydroxy-aceclofenac acid 2 elutes at 1.60 minutes and dihydroxy-aceclofenac elutes at 1.42 minutes.

[13] = Hydroxylation of diclofenac catalysed by cytochrome P450 aluC09 and mutants (UPLC-PDA-MS); details: for 4′,5-dihydroxy-diclofenac 1.38 mins / 4′-hydroxy-diclofenac (1) 1.62 mins / 5-hydroxy-diclofenac (2) 1.58 mins / Diclofenac (Substrate) 1.81 mins: % by UV peak area at 275 nm, 0.125 mg/ml substrate, 27° C., 16-20 hours; for Hydroxylated Ratio hydroxy 1:hydroxy 2: ratio of UV peak areas at 275nm
Description: as §1, §3, §4, §5, §6
Illustrative results for the hydroxylation of diclofenac by CYP450aluC09 and selected T291x mutants are summarised below in Table 3 with representative chromatograms resented in FIG. 3a-c; retention times: diclofenac 1.85-1.88 minutes, 5-hydroxydiclofenac 1.60-1.63 minutes, 4′-hydroxydiclofenac 1.65-1.68 minutes, 4′,5-dihydroxydiclofenac 1.40-1.42 minutes. The chromatographic retention times and mass spectra coincided with those of authentic samples.

[14] = Metabolism of valsartan by P450 aluC09 and mutants; details: percent of substrate being converted; 0.125 mg/ml, 27° C., 16-20 hours; [CYP] per enzyme as in Table 8
Description: as §1, §2

[15] = Metabolism of ritonavir by P450 aluC09 and mutants; details: percent of substrate being converted; 0.125 mg/ml, 27° C., 16-20 hours; [CYP] per enzyme as in Table 8
Description: as §1, §2

[16] = Hydroxylation / de-N-ethylation of napropamide catalysed by cytochrome P450 aluC09 and mutants; details: for Desethyl Napropamide (1.62 min) / Desethyl-hydroxy-Napropamide (1.41 min) / Hydroxy-Napropamide (1) (1.53 min) / Hydroxy-Napropamide (2), (1.52 min) / M-2Da (unidentified) (1.89 min) / Napropamide (substrate): % by UV peak area at 275 nm, 0.125 mg/ml substrate, 27° C., 16-20 hours; for Hydroxylated Ratio 2:1: napropamide, ratio of UV peak areas
Description: as §1, §3, §4, §5, §6
Napropamide elutes at 1.76 minutes, unidentified metabolite (−2 Da) elutes at 1.90 minutes, desethyl-napropamide elutes at 1.62 minutes, hydroxy-napropamide 1 elutes at 1.53 minutes and hydroxy-napropamide 2 elutes at 1.52 minutes and the desethyl-hydroxy-napropamide product elutes at 1.41 minutes.

Row | Molecule | % conversions (avg) Tivantinib [1] [%] | % conversions (avg) Epothilone B [2] [%] | Indomethacin (1.74 mins) [3] [%] | O-demethyl-Indomethacin (1.52 mins) [3] [%] | % conversions (avg) Bosentan [4] [%] | % conversions (avg) 4-pyrrolidylacetophenone [5] [%] | % conversions (avg) Celecoxib [6] [%] | % conversions (avg) Tofacitinib [7] [%] | Flufenamic Acid (Substrate) 1.93 mins [8] [%] | Hydroxy-Flufenamic Acid (1) 1.69 mins [8] [%] | Hydroxy-Flufenamic Acid (2) 1.65 mins [8] [%] | Hydroxylated Ratio 1:2 [8] | % conversions (avg) Buparvaquone [9] [%] | % conversions (avg) Ruxolitinib [10] [%] | % conversions (avg) BIRB796 [11] [%] | Aceclofenac (Substrate) (1.80 mins) [12] [%] | Dihydroxy-Aceclofenac (1.42 mins) [12] [%] | Hydroxy-Aceclofenac (1) (1.64 min) [12] [%] | Hydroxy-Aceclofenac (2) (1.60 min) [12] [%] | Hydroxylated Ratio 2:1 [12] | other results
1 | B1 | 7.2 | 1.6 | 93.0 | 7.0 | 85.1 | 1.5 | 0 | 0 | 94.4 | 5.1 | 0.5 | 4.9 | 0 | 5.3 | 0 | 63.7 | 4.4 | 18.6 | 13.3 | 0.7 | production of hydroxyl-flufenamic acid 2 ([8]; peak at 1.65 minutes, compared to wild-type): no detectable production; 4′,5-dihydroxy-diclofenac 1.38 mins [13]: 2.1%; 4′-hydroxy-diclofenac (1) 1.62 mins [13]: 42.8%; 5-hydroxy-diclofenac (2) 1.58 mins [13]: 14.6%; Diclofenac (Substrate) 1.81 mins [13]: 41.4%; Hydroxylated Ratio hydroxy 1:hydroxy 2 ([13]; diclofenac): 2.9; % conversions (avg) Valsartan [14]: 7.8%; % conversions (avg) Ritonavir [15]: 39.2%; Desethyl Napropamide (1.62 min) [16]: 16.3%; Desethyl-hydroxy-Napropamide (1.41 min) [16]: 0.7%; Hydroxy-Napropamide (1) (1.53 min) [16]: 1.4%; Hydroxy-Napropamide (2), (1.52 min) [16]: 1.6%; M-2Da (unidentified) (1.89 min) [16]: 2.3%; Napropamide (substrate) [16]: 78.2%; Hydroxylated Ratio 2:1 [16]: 1.2
2 | B2 | 35.7 | 20.6 | 94.1 | 5.9 | 98.4 | 3.3 | 1.5 | 1.1 | 95.8 | 2.7 | 1.5 | 1.9 | 7.1 | 34.1 | 4.6 | 21.8 | 26.6 | 12.2 | 39.4 | 3.2 | 4′,5-dihydroxy-diclofenac 1.38 mins [13]: 0.9%; 4′-hydroxy-diclofenac (1) 1.62 mins [13]: 41.3%; 5-hydroxy-diclofenac (2) 1.58 mins [13]: 9.9%; Diclofenac (Substrate) 1.81 mins [13]: 48.2%; regioselectivity of hydroxylation (product ratio 4′-hydroxydiclofenac : 5-hydroxydiclofenac) ([13]; diclofenac): over four-fold; Hydroxylated Ratio hydroxy 1:hydroxy 2 ([13]; diclofenac): 4.2; % conversions (avg) Valsartan [14]: 21.8%; % conversions (avg) Ritonavir [15]: 37.6%; Desethyl Napropamide (1.62 min) [16]: 36.6%; Desethyl-hydroxy-Napropamide (1.41 min) [16]: 4.8%; Hydroxy-Napropamide (1) (1.53 min) [16]: 1.2%; Hydroxy-Napropamide (2), (1.52 min) [16]: 3.6%; M-2Da (unidentified) (1.89 min) [16]: 5.3%; Napropamide (substrate) [16]: 51.0%; Hydroxylated Ratio 2:1 [16]: 3.0
